A short description of test [1]: Liposome array cooperative membrane recruitment (NBI). The note with it: GFP-tagged fusion, cooperative binding. From the text:
FIG. 13: High-throughput image processing and calculation of normalized binding intensity. (a) Image processing pipeline. Multiple images are acquired, one exposure time for Atto647 and multiple exposure times for GFP to capture broad range of binding intensities, from strong (short exp. times) to weak (longer exp. times). All images are then processed with CellProfiler software. After removal of background, the Atto647 image is used for segmentation to obtain a mask representing position of liposome membranes. In parallel the combination of overexposed pixels from both channels (Atto647 and GFP) is removed from every pair of Atto647 and GFP image. Subsequently, a mask is applied to all filtered (i.e. without overexposed pixels) images. Number of pixels matching with the mask and their mean fluorescence intensity is extracted from all images (i.e. both channels and every exposure time). Normalized binding intensity (NBI) is then calculated as a ratio of mean fluorescence intensity from GFP channel and mean fluorescence intensity from Atto647 channel for every pair of images. (b) Image segmentation and liposome counting. […] CellProfiler software is used to segment the image to retrieve a mask representing liposome membranes, and also to search for centers of liposomes that are then used for estimating a number of liposomes analyzed per image. […]

Test [2] can be described thus: Liposome array lipid-binding profile, normalized binding intensity (NBI). The note with it: GFP-tagged fusion, cell lysate, 20 min incubation. The source says:
(§1) FIG. 13: High-throughput image processing and calculation of normalized binding intensity. (a) Image processing pipeline. Multiple images are acquired, one exposure time for Atto647 and multiple exposure times for GFP to capture broad range of binding intensities, from strong (short exp. times) to weak (longer exp. times). All images are then processed with CellProfiler software. After removal of background, the Atto647 image is used for segmentation to obtain a mask representing position of liposome membranes. In parallel the combination of overexposed pixels from both channels (Atto647 and GFP) is removed from every pair of Atto647 and GFP image. Subsequently, a mask is applied to all filtered (i.e. without overexposed pixels) images. Number of pixels matching with the mask and their mean fluorescence intensity is extracted from all images (i.e. both channels and every exposure time). Normalized binding intensity (NBI) is then calculated as a ratio of mean fluorescence intensity from GFP channel and mean fluorescence intensity from Atto647 channel for every pair of images. […] CellProfiler software is used to segment the image to retrieve a mask representing liposome membranes, and also to search for centers of liposomes that are then used for estimating a number of liposomes analyzed per image. […] Fluorescence signal was analysed via a high-throughput image analysis pipeline (FIG. 13). […]

Experiment in test [3]: as above
The conditions noted are these: GFP-tagged fusion, cell lysate, 20 min incubation.
From the text: as §1
This is another data set of the same source.

A short description of test [4]: Akt PH domain binding to liposome array, wide-field fluorescence microscopy. The note with it: E. coli lysate with fluorescently labelled domain, 30 minutes incubation, PBS wash. From the text: (§2) The Akt Pleckstrin Homology (PH) domain (positions 6 to 110) is known to specifically bind to PI-(3,4)-P2 and PI-(3,4,5)-P3 and is thus, used as a model system to evaluate the specificity and sensitivity of assays performed using the liposome array. The fluorescently labelled Akt PH domain is expressed in Escherichia coli, cells are lysed by sonication and after a centrifugation at 10000 g, supernantant is recovered and injected in the microchip. Several liposome arrays each comprising liposomes formed from different lipids are produced. Liposomes either comprised POPC only, or a […] mol:mol mixture of POPC:DOPS, POPC:PI3P, POPC:PI4P, POPC:PI(3,4)P2, POPC:PI(3,5)P2, POPC:PI(4,5)P2, POPC:PI(3,4,5)P3 (all of which are purchased from Avanti polar lipids) as shown in FIG. 11(a) to (h), respectively.
(§3) E. coli lysate comprising the fluorescently labelled Akt PH domain is applied to the liposome array and incubated 30 minutes and washed with PBS buffer before imaging.

Experiment in test [5]: as above
The note with it: E. coli lysate with fluorescently labelled domain, 30 minutes incubation, PBS wash.
From the text: as §2, §3
The source holds these as a separate data set.

Test [6] in a line: Liposome array lipid-binding profile, normalized binding intensity (NBI). The conditions noted are these: GFP-tagged fusion, cell lysate, 20 min incubation.
From the text: as §1
This is another data set of the same source.

For the molecule “Pkcγ: protein kinase C-γ, GFP-tagged fusion”, the membrane recruitment entry in test [1] is “calcium-dependent recruitment”.

B1: Hsv2: Hsv2 protein (PROPPIN domain), GFP-tagged fusion (protein, UniProt P50079 1-448, looked up)
SVP1-like protein 2: MDVRRPIREAVNNRRKPKFLSVSFNQDDSCFSVALENGFRIFNTDPLTSKLSKTFKESATNQSRGTGIGYTRMLYRTNYIALVGGGKRPRHALNKLIIWDDLLQKETITLKFMSSIKDVFLSRIHIVVVLENTIEIFQFQTNPQRICPILDIPPNGSVDYVVCSSKHLQSQASQSQSKILEIIAFPSNKCVGQIQVADLSQIKYNSQNPKESALLPTSIIKAHKNPIKLVRLNRQGTMVATCSVQGTLIRIFSTHNGTLIKEFRRGVDKADIYEMSFSPNGSKLAVLSNKQTLHIFQIFETTNTETNTPDHSRANGSSHPLKNYIPKGLWRPKYLDSVWSICNAHLKNPIFDAHRNDNSGDVTHDNEFYKDRCRIGWCQDSNNREQDDSLVLVWQNSGIWEKFVILEKEQQDSSKTHYSLNESLRNEDTKSAGEPTRWELVRESWREL
modifications: GFP tag
notes: Hsv2 protein (PROPPIN domain), GFP-tagged fusion
For B1, the “interaction confirmed by NBI profile” value in test [2] and in test [3] was “interactions” throughout.

B2: Akt PH domain: Akt Pleckstrin Homology (PH) domain (positions 6 to 110), fluorescently labelled, expressed in Escherichia coli (protein, UniProt P31749 6-110, looked up, fragment)
chain: IVKEGWLHKRGEYIKTWRPRYFLLKNDGTFIGYKERPQDVDQREAPLNNFSVAQCQLMKTERPRPNTFIIRCLQWTTVIERTFHVETPEEREEWTTAIQTVADGL
modifications: PH domain fluorescent label
notes: Akt Pleckstrin Homology (PH) domain (positions 6 to 110), fluorescently labelled, expressed in Escherichia coli
For the molecule B2, the binding to liposomes result in test [4] and in test [5] was “binds” each time. Further, the “interaction confirmed by NBI profile” value in test [6] and in test [2] was “interactions” throughout.

The values are drawn from patent US20150309057A1, “Giant Liposome Array for High-throughput Lipid-Interaction Screening” (EUROPEAN MOLECULAR BIOLOGY LABORATORY (EMBL), priority 2012, published 2015).
